Source: paper PMC8326426, “Resveratrol-induced Sirt1 phosphorylation by LKB1 mediates mitochondrial metabolism” (The Journal of Biological Chemistry, 2021)

B1: GST-Sirt1 WT (C terminus), aa 511 to 747 (domain or fragment, human, UniProt Q96EB6 511-747, looked up)
chain: TEKPPRTQKELAYLSELPPTPLHVSEDSSSPERTSPPDSSVIVTLLDQAAKSNDDLDVSESKGCMEEKPQEVQTSRNVESIAEQMENPDLKNVGSSTGEKNERTSVAGTVRKCWPNRVAKEQISRRLDGNQYLFLPPNRYIFHGAEVYSDSEDDVLSSSSCGSNSDSGTCQSPSLEEPMEDESEIEEFYNGLEDEPDVPERAGGAGFGTDGDDQEAINEAISVKQEVTDMNYPSNKS
notes: Sirt1, human, C terminus, aa 511 to 747; GST-tagged Sirt1 was made by subcloning human Sirt1 cDNA into pGEX-6p-1; also called GST-Sirt1-C; GST-tagged C terminus of Sirt1; source: E. coli Rosetta (DE3), purified (glutathione-Sepharose 4B, eluted with reduced glutathione)
B2: GST-Sirt1 3D mutant (C terminus), aa 511 to 747 (domain or fragment, human, UniProt Q96EB6 511-747, looked up)
chain: TEKPPRTQKELAYLSELPPTPLHVSEDSSSPERTSPPDSSVIVTLLDQAAKSNDDLDVSESKGCMEEKPQEVQTSRNVESIAEQMENPDLKNVGSSTGEKNERTDVAGTVRKCWPNRVAKEQISRRLDGNQYLFLPPNRYIFHGAEVYSDSEDDVLSSDSCGSNSDSGTCQSPSLEEPMEDESEIEEFYNGLEDEPDVPERAGGAGFGTDGDDQEAINEAIDVKQEVTDMNYPSNKS
notes: Sirt1, human, C terminus, aa 511 to 747, Ser615, Ser669 and Ser732 replaced by Asp; source: E. coli Rosetta (DE3), purified (glutathione-Sepharose 4B, eluted with reduced glutathione)
B3: GST-Sirt1 3A mutant (C terminus), aa 511 to 747 (domain or fragment, human, UniProt Q96EB6 511-747, looked up)
chain: TEKPPRTQKELAYLSELPPTPLHVSEDSSSPERTSPPDSSVIVTLLDQAAKSNDDLDVSESKGCMEEKPQEVQTSRNVESIAEQMENPDLKNVGSSTGEKNERTAVAGTVRKCWPNRVAKEQISRRLDGNQYLFLPPNRYIFHGAEVYSDSEDDVLSSASCGSNSDSGTCQSPSLEEPMEDESEIEEFYNGLEDEPDVPERAGGAGFGTDGDDQEAINEAIAVKQEVTDMNYPSNKS
notes: Sirt1, human, C terminus, aa 511 to 747, Ser615, Ser669 and Ser732 replaced by Ala; source: E. coli Rosetta (DE3), purified (glutathione-Sepharose 4B, eluted with reduced glutathione)
B4: GST-tagged LZ (leucine-zipper) domain of DBC1, aa 243 to 264 (domain or fragment, UniProt Q8N163 243-264, looked up)
chain: LQRRYRSLLVPSDFLSVHLSWL
notes: DBC1 (Deleted in Breast Cancer 1), leucine zipper, aa 243 to 264; also called GST-LZ; DBC1 LZ domain; source: E. coli, purified
B5: C-terminal truncation of Sirt1, WT (eluted competitor), aa 511 to 747 (domain or fragment, human, UniProt Q96EB6 511-747, looked up)
chain: TEKPPRTQKELAYLSELPPTPLHVSEDSSSPERTSPPDSSVIVTLLDQAAKSNDDLDVSESKGCMEEKPQEVQTSRNVESIAEQMENPDLKNVGSSTGEKNERTSVAGTVRKCWPNRVAKEQISRRLDGNQYLFLPPNRYIFHGAEVYSDSEDDVLSSSSCGSNSDSGTCQSPSLEEPMEDESEIEEFYNGLEDEPDVPERAGGAGFGTDGDDQEAINEAISVKQEVTDMNYPSNKS
notes: Sirt1, human, C terminus, aa 511 to 747; the methods name GST- and His-tagged Sirt1 truncations from E. coli; also called the C terminus of Sirt1; WT C terminus; source: eluted
B6: C-terminal truncation of Sirt1, 3D mutant (eluted competitor), aa 511 to 747 (domain or fragment, human, UniProt Q96EB6 511-747, looked up)
chain: TEKPPRTQKELAYLSELPPTPLHVSEDSSSPERTSPPDSSVIVTLLDQAAKSNDDLDVSESKGCMEEKPQEVQTSRNVESIAEQMENPDLKNVGSSTGEKNERTDVAGTVRKCWPNRVAKEQISRRLDGNQYLFLPPNRYIFHGAEVYSDSEDDVLSSDSCGSNSDSGTCQSPSLEEPMEDESEIEEFYNGLEDEPDVPERAGGAGFGTDGDDQEAINEAIDVKQEVTDMNYPSNKS
notes: Sirt1, human, C terminus, aa 511 to 747, Ser615, Ser669 and Ser732 replaced by Asp; also called 3D C terminus; source: eluted

Target: T1, MBP-Sirt1 core domain, aa 234 to 510 (human, UniProt Q96EB6 234-510)
T1 construct: Sirt1, human, deacetylase core domain, aa 234 to 510; MBP-tagged Sirt1 was made by subcloning human Sirt1 cDNA into pMal-c2X; also called MBP-tagged core domain of Sirt1; source: E. coli, purified
T1 sequence (looked up): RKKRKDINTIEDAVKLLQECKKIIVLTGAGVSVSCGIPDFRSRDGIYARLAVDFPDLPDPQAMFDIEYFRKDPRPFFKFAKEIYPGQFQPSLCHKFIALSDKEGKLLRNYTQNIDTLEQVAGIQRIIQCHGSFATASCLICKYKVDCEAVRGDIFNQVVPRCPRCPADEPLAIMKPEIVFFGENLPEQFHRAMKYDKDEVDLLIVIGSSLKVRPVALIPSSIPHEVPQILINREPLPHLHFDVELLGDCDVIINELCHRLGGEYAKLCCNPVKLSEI
Experiment: pull-down; MBP pull-down: MBP-Sirt1 core domain purified from E. coli incubated with eluted GST-Sirt1 C terminus (WT, 3A or 3D); bound fraction immunoblotted
Settings: both partners purified

Binding result, binds:
B1, B2, B3

Target: T2, His-Sirt1 core domain, aa 234 to 510 (human, UniProt Q96EB6 234-510)
T2 construct: Sirt1, human, deacetylase core domain, aa 234 to 510; His-tagged Sirt1 was made by subcloning human Sirt1 cDNA into pET28a; also called His-tagged Sirt1 core domain; source: E. coli Rosetta (DE3), eluted
T2 sequence (looked up): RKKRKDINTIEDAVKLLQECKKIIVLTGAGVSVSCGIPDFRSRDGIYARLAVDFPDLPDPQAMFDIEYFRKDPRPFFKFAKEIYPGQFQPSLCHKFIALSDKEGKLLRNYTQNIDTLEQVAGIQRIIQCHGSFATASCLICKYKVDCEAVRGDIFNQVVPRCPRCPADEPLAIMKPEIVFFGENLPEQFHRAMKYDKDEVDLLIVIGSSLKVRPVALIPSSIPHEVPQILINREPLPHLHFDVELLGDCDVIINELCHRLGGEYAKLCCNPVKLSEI
Experiment: pull-down; competitive binding: 2 ug GST-LZ of DBC1 from E. coli, 2 ug eluted His-Sirt1 core domain, with or without 2 ug eluted C-terminal truncation of Sirt1 (WT or mutants), 4 h; bound fraction immunoblotted
Settings: both partners purified

Binding result, binds:
B4, B5, B6
